Laboratory results taken from patent US20050215470A1 (Amgen, published 2005).
Non-standard residues stand in square brackets, D forms with d. No end group written: not given here. Gly(cPent) = N[C@H](C(=O)O)C1CCCC1; Hyp = O=C(O)[C@@H]1C[C@@H](O)CN1; dTic = O=C(O)[C@H]1Cc2ccccc2CN1

T1: human bradykinin B1 receptor (human, UniProt P46663 1-353)
T1 sequence (looked up): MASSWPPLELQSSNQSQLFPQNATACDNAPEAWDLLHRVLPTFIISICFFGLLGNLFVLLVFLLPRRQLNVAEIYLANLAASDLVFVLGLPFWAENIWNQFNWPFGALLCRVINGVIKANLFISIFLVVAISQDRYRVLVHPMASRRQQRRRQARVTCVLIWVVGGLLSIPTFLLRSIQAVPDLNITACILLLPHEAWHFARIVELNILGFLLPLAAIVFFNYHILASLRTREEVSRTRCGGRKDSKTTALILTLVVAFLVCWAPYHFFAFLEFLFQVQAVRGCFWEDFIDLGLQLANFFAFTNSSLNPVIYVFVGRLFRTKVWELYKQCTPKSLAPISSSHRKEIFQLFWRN

T2: human bradykinin B2 receptor (human, UniProt P30411 1-391)
T2 sequence (looked up): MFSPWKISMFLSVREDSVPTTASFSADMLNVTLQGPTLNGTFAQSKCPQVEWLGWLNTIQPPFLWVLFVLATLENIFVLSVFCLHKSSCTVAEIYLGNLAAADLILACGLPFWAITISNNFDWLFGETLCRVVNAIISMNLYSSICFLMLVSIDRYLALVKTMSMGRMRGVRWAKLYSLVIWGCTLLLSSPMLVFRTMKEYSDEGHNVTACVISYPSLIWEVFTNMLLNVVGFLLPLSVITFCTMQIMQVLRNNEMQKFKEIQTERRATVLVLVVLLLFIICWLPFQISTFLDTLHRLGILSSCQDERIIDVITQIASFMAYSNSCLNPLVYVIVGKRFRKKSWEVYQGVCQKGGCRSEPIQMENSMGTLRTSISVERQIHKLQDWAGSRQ


Experiments:
[1] = biological target: T1, human bradykinin B1 receptor; experiment: cell-based or functional assay
[2] = biological target: T2, human bradykinin B2 receptor; experiment: cell-based or functional assay
[3] = biological target: T1, human bradykinin B1 receptor; experiment: cell-based or functional assay; remark: listed apart in the source
[4] = biological target: T1, human bradykinin B1 receptor; experiment: binding affinity (Ki) at the human B1 receptor; assay format not described

IC50 in the hB1 aequorin assay [1] | antagonist activity in the hB2 FLIPR assay [2] | fold increase in IC50 in the hB1 aequorin assay against the unconjugated peptide [1] | hB1 IC50 (nM), functional potency [3] | Ki [4] | Binder
3 nM | > 10 µM |  |  |  | KKRP[Hyp]G[Gly(cPent)]S[dTic][Gly(cPent)] [SEQ ID NO:36]
 | > 10 µM | ~10 fold |  |  | KKRP[Hyp]G[Gly(cPent)]S[dTic][Gly(cPent)] (also: conjugated to PEG, size, linker and site not given here) [the same peptide (SEQ ID NO:36) conjugated to PEG]
 | > 10 µM |  | 1 nM | 0.8 nM | Ac-KKRP[Hyp]G[Gly(cPent)]S[dTic][Gly(cPent)] [SEQ ID NO: 37]
